# Experimental data taken from article PMC10821868.
# Several values for one entry are separate records, joined by “and”; a condition that tells them apart may be missing. Equal entries are not always repeated.
# Experiments:
# [1] = target: PKM2 (mouse (endogenous in ImKCs)) (UniProt P52480); test: cross-linking; DSS crosslinking followed by Western blotting, after DPI treatment; also with the ERK1/2 inhibitor SCH772984
# [2] = target: PKM2 (mouse (endogenous in ImKCs)) (UniProt P52480); test: native gel or EMSA; ImKCs treated with vehicle or DPI (50 and 500 nM) for 1 h (also 6 and 12 h); proteins extracted in Native PAGE sample buffer with 1% digitonin, run on native PAGE, anti-PKM2 Western blotting
# Chain of PKM2, P52480-1 1-531 (enzyme; other documents disagree on this pair) (P52480 whole entry): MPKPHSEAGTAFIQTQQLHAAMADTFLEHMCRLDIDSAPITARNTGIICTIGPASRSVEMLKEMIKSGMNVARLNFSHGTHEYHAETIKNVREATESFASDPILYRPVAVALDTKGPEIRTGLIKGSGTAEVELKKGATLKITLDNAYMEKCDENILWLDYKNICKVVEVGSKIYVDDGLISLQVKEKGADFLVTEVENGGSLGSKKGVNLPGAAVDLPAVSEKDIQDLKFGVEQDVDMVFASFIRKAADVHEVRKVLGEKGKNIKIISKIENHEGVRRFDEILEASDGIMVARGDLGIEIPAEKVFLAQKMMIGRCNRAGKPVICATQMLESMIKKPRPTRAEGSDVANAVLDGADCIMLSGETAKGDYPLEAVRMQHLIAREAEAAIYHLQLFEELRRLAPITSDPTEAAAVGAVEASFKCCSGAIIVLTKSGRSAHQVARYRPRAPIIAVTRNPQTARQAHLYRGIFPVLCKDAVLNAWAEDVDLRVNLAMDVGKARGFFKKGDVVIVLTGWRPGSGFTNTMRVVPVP
substance,measurement,setting,value
"PKM2, P52480-1 1-531 (enzyme; other documents disagree on this pair)",stoichiometry N,[1],2
same,stoichiometry N,[2],2 and 4
